# Values quoted from earlier work as cited in paper PMC12687463.
# Where two headings read alike, the source gives them in different places.
# Columns and labels:
# [1] = molecular target: glucokinase regulatory protein (GKRP) (Homo sapiens) (UniProt Q14397)
# [2] = molecular target: glucokinase regulatory protein (GKRP) (Homo sapiens) (UniProt Q14397); remark: listed apart in the source
# [3] = molecular target: glucokinase regulatory protein (GKRP) (Homo sapiens) (UniProt Q14397); remark: listed apart in the source
# UniProt Q14397, sequence (Q14397 whole entry): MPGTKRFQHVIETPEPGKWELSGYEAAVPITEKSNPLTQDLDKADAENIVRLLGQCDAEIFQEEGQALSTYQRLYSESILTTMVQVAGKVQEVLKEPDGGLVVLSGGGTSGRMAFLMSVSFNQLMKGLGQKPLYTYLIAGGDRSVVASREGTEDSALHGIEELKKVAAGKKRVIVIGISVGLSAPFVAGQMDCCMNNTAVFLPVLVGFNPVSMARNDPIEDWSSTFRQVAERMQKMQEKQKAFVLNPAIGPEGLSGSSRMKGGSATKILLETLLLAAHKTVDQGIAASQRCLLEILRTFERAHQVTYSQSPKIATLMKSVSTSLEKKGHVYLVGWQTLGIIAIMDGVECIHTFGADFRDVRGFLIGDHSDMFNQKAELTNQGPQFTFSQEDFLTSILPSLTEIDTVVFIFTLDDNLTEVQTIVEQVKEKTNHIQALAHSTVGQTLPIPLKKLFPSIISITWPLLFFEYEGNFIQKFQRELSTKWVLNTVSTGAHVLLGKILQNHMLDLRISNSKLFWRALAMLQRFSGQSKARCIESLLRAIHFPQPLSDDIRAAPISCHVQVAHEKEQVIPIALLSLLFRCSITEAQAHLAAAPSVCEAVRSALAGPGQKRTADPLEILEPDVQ
# glucokinase, sequence (P35557 whole entry): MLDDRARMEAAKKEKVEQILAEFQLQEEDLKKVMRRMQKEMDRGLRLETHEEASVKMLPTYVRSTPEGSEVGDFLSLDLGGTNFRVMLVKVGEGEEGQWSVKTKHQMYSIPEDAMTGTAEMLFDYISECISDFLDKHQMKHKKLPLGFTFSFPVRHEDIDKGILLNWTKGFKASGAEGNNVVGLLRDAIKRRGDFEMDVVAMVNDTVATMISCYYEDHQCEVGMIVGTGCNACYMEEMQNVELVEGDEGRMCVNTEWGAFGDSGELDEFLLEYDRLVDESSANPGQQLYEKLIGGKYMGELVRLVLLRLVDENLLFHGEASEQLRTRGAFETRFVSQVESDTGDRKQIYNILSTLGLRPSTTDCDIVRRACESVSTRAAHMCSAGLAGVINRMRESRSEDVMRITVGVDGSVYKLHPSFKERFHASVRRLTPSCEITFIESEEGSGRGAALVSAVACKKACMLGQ
substance,measurement,setting,value
glucokinase (from UniProt P35557),Ki,[1],984 nM
same,Ki,[2],45 nM
same,Ki,[3],7 µM
